In PMC7714070, “The role of the cytoskeletal proteins MreB and FtsZ in multicellular cyanobacteria” (FEBS Open Bio, 2020):

Molecular target: the molecule itself
Experiment: in vitro polymerisation seen by epifluorescence microscopy; Ni-NTA-purified FtsZ-His labelled with NHS-Fluorescein, in FtsZ polymerization buffer (50 mM MES, 50 mM KCl, 10 mM MgCl2, 2 mM GTP, pH 6.5), 40 min at 30 °C

B1: Polyhistidine tagged FtsZ from Fischerella muscicola PCC 7414 (natural protein, UniProt A0A2N6JXP9 1-430, looked up)
chain: MTLDNNQGLTYKNSQSPGQSTFSLAVNSTNPFNHSGLSFGQNNDSKKIEREETRIGDIVPGRVANIKVIGVGGGGSNAVNRMIASDVSGVEFWSINTDAQALTLAAAPSRLQIGQKLTRGLGAGGNPAIGTKAAEESRDEIATALDGADLVFITAGMGGGTGTGAAPIVAEVAKEMGALTVGVVTRPFIFEGRRRISQAEQGIEGLKSRVDTLIIIPNNKLLEVIPEQTPMQEAFRYADDVLRQGVQGISDIITIPGLINVDFADVRAVMADAGSALMGIGIGSGKSRAREAAIAAISSPLLECSIEGARGVVFNITGGSDLTLHEVNAAAETIYEVVDPNANIIFGAVIDDRLQGEVRLTVIATGFTGEAPAAQQSNVTQGRVVQPPPQRRPMQQPPAPNPPTQTPEPKEKGSVLDIPDFLRKRTPPRN
modifications: labelled with NHS-Fluorescein
notes: FtsZ of Fischerella muscicola PCC 7414; also called FtsZFm-His; FtsZ-His; source: E. coli BL21 (DE3), purified (Ni-NTA)
- binding result: binds

B2: Polyhistidine tagged FtsZ from Anabaena sp. PCC 7120 (natural protein, UniProt P45482 1-428, looked up)
chain: MTLDNNQELTYRNSQSLGQPGFSLAVNSSNPFNHSGLNFGQNNDSKKISVENNRIGEIVPGRVANIKVIGVGGGGGNAVNRMIESDVSGVEFWSINTDAQALTLAGAPSRLQIGQKLTRGLGAGGNPAIGQKAAEESRDEIATALEGADLVFITAGMGGGTGTGAAPIVAEVAKEMGALTVGVVTRPFVFEGRRRTSQAEQGIEGLKSRVDTLIIIPNNKLLEVIPEQTPVQEAFRYADDVLRQGVQGISDIITIPGLVNVDFADVRAVMADAGSALMGIGVSSGKSRAREAAIAAISSPLLECSIEGARGVVFNITGGSDLTLHEVNAAAETIYEVVDPNANIIFGAVIDDRLQGEVRITVIATGFTGEIQAAPQQNAANARVVSAPPKRTPTQTPLTNSPAPTPEPKEKSGLDIPDFLQRRRPPKN
modifications: labelled with NHS-Fluorescein
notes: FtsZ of Anabaena sp; PCC 7120; also called FtsZAna-His; FtsZ-His; source: E. coli BL21 (DE3), purified (Ni-NTA)
- binding result: binds
